Reference: US20240336656A1
Starred links: 1 amine or outer side, 2 acyl side, 3 side chain; linkers in the order of their positions; H or OH if unused. Positions of bridges follow the written chain, without caps; N, C: chain ends. Non-standard residues stand in square brackets, D forms with d. Groups on a side chain read outwards from the residue. Chains are numbered I, II in the order given. No end group written: not given here. *: point of attachment. TATA = O=C(CC[*:1])N1CN(C(=O)CC[*:2])CN(C(=O)CC[*:3])C1; PEG12 = NCCOCCOCCOCCOCCOCCOCCOCCOCCOCCOCCOCCOCCC(=O)O; Biotin = O=C1N[C@H]2[C@H](CS[C@H]2CCCCC(=O)*)N1; 1Nal = N[C@@H](Cc1cccc2ccccc12)C(=O)O; Hyp = O=C(O)[C@@H]1C[C@@H](O)CN1; hArg = N=C(N)NCCCC[C@H](N)C(=O)O; tBuAla = CC(C)(C)C[C@H](N)C(=O)O; Nle = CCCC[C@H](N)C(=O)O; Pent4ynoyl = C#CCCC(=O)*

What was measured:
[1] = biological target: CD137 (TNFRSF9) on cells (human), Q07011; test: cell-based or functional assay
Sequence of CD137 (TNFRSF9) on cells (human), Q07011 (Q07011 24-255): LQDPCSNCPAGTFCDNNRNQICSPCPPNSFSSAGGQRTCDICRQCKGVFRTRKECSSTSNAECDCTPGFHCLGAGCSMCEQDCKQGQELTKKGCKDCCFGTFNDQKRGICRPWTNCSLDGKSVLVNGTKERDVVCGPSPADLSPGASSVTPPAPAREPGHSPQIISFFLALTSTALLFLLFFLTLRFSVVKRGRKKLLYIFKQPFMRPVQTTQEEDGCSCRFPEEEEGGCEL

[2] = biological target: T1, cyno CD137 extracellular domain (cyno), A9YYE7; test: SPR direct binding, BCY13582 captured with reversible biotin capture kit, soluble CD137 ECD; n = 1
T1 chain: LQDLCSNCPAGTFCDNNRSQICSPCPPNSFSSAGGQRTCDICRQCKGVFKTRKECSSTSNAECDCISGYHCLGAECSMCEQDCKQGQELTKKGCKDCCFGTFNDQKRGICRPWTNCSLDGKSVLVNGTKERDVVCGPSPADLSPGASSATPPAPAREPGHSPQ

[3] = biological target: human CD137 extracellular domain (human), Q07011; test: SPR direct binding, BCY13582 captured with reversible biotin capture kit, soluble CD137 ECD; n = 3
Sequence of human CD137 extracellular domain (human), Q07011 (Q07011 24-186): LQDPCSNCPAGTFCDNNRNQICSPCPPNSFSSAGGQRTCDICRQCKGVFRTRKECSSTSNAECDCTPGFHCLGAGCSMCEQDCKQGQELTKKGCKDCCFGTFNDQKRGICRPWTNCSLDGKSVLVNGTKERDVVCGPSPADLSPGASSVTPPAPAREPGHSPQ

B1: BCY13583 (peptide)
peptide 1: {N‑(acid-PEG3)‑N‑bis(PEG3-azide) linker}-CP[1Nal][dD]CM[hArg]DWSTP[Hyp]WC
peptide 2: Ac-C[tBuAla]PE[dK](Pent4ynoyl)PYCFADPY[Nle]CA
peptide 3: Ac-C[tBuAla]PE[dK](Pent4ynoyl)PYCFADPY[Nle]CK(Alexa Fluor 488)
modifications: linker I:1-I:5-I:15, II:1-II:8-II:15, III:1-III:8-III:15 via TATA; not fully specified (bridges); also: chains 2 and 3 triazole-clicked via D-Lys(PYA) to the N-(acid-PEG3)-N-bis(PEG3-azide) linker, chain 1 joined to the linker at its N-terminus
EC50 (nM) of fold induction over background, CD137 reporter assay, coculture with HT1376 (human) [1]: 1.7 nM | EC50 (nM) of fold induction over background, CD137 reporter assay, coculture with MDA-MB-468 (human) [1]: 0.84 nM

B2: BCY13582 (peptide)
peptide 1: {N‑(acid-PEG3)‑N‑bis(PEG3-azide) linker}-CP[1Nal][dD]CM[hArg]DWSTP[Hyp]WC
peptide 2: Ac-C[tBuAla]PE[dK](Pent4ynoyl)PYCFADPY[Nle]CA
peptide 3: Ac-C[tBuAla]PE[dK](Pent4ynoyl)PYCFADPY[Nle]CK([PEG12-Biotin])
modifications: linker I:1-I:5-I:15, II:1-II:8-II:15, III:1-III:8-III:15 via TATA; not fully specified (bridges); also: chains 2 and 3 triazole-clicked via D-Lys(PYA) to the N-(acid-PEG3)-N-bis(PEG3-azide) linker, chain 1 joined to the linker at its N-terminus
EC50 (nM) of fold induction over background, CD137 reporter assay, coculture with HT1376 (human) [1]: 0.58 nM | EC50 (nM) of fold induction over background, CD137 reporter assay, coculture with MDA-MB-468 (human) [1]: 0.34 nM | Kd [2]: 4.23 nM | Kd [3]: 8.4 nM
